Consider two substances from publication PMC6465384.

For the test, the target named is SpyDock (SpyCatcher2.1 S49C E77A), carbamidomethylated. The test can be described thus: ITC; 20 μM carbamidomethylated SpyDock in the cell, 20 injections of 210 μM SpyTag-MBP or SpyTag002-MBP from the syringe; 25 °C; 20 mM HEPES pH 7.0, 150 mM NaCl; 1:1 binding model.

A word on the Kd: it is the equilibrium constant for the complex coming apart. Read a low Kd as a tighter complex. In general, stoichiometry N refers to a count of units in the complex or per binding partner. SpyTag002-MBP had a Kd of 73 nM and a stoichiometry N of 1.

As for SpyTag-MBP, the Kd was found to be 750 nM and the stoichiometry N was found to be 1.
